According to US20090239794A1, “HCV F PROTEIN AND USES THEREOF” (priority 2004, published 2009):

Target: T1, HLA-A*0201 (Homo sapiens, UniProt P04439, D140Y/D185E/D98H/E176V/E277Q/G131W/G231S/I119V/I121R/I166T/I218V/L300P/L318F/N151K/N90K/P208A/P217A/Q86G/Q94H/R138H/R169H/T345S)
T1 construct: rescue cell-surface expression of CMH-I molecule HLA-A2 in the TAP peptide transporter-deficient cell line T2; endogenous in cells; host or cells: T2 cells (TAP-deficient)
Assay: T2 peptide binding assay
Type: cell-based
Settings: for dose-response of MHC class I (HLA-A2) expression at the surface of T2 cells: 30, 100, 200 μg/ml; for Peak fluorescence, % of the levels obtained with NS3 1406-1415 / initial screening of the overlapping peptide panel for HLA-A*0201 expression at the cell surface / A2 binding: T2 cells; for Peak fluorescence, % of the levels obtained with NS3 1406-1415: MHC class I staining with W6/32; for initial screening of the overlapping peptide panel for HLA-A*0201 expression at the cell surface: 200 μg/ml; for A2 binding: dose-dependent increase of HLA-A2 surface expression
Method: 37 overlapping peptides (15 amino acid residues with […]) derived from F protein and 5 additional 15-mer peptides corresponding to alternative N-terminal frameshift products of the core protein sequence were synthesized using Fmoc chemistry (SynPep, Dublin, Calif.) based on the sequence of HCV-1a F protein (GenBank accession n° M62321), and were resolubilized in 25% w/v dimethyl sulfoxyde (DMSO) in 1×HBSS. Peptides were diluted to 30, 100, and 200 μg/ml final concentration in DMEM supplemented with 3% w/v FBS, and were incubated with 100,000 serum-depleted (3% FBS for 24 h) T2 cells for 16 h at 37° C. in 5% CO2. T2 cells were then stained (30 min at room temperature) for MHC class I molecules using fluorescein isothiocyanate (FITC)-conjugated W6/32 monoclonal antibody (Sigma, Saint Louis, Mo.) and were analyzed on a FACSCalibur™ flow cytometer (Becton-Dickinson Immunocytometry Systems, La Jolla, Calif.) with live gating based on forward and side scatter.
Interaction of antigenic peptides with class I major histocompatibility complex (MHC) molecules is a prerequisite for their recognition by host cytotoxic T lymphocytes (CTL). The T2 binding assay was therefore performed, in which exogenously-supplied peptides are assessed for their ability to rescue cell-surface expression of CMH-I molecule HLA-A2 in the TAP peptide transporter-deficient cell line T2 [25].
Forty-two overlapping 15-mer peptides corresponding to HCV-1a F protein sequence were tested for interaction with HLA-A*0201 molecules using the T2 peptide binding assay. Specifically, thirty-seven overlapping peptides (15 amino acid residues with 11 residues overlaps) derived from F protein and 5 additional 15-mer peptides corresponding to alternative N-terminal frameshift products of the core protein sequence were synthesized using Fmoc chemistry based on the sequence of HCV-1a ARFP (GenBank accession n° M62321), and peptide binding was assessed as described in Example 1. […] Mean fluorescence intensity following class I MHC staining by the W6/32 monoclonal antibody was used as the readout. The threshold level was set using no peptide controls (hatched lines in FIGS. 4 and 5).

Row | Sequence | dose-response of MHC class I (HLA-A2) expression at the surface of T2 cells | Peak fluorescence, % of the levels obtained with NS3 1406-1415 [%] | initial screening of the overlapping peptide panel for HLA-A*0201 expression at the cell surface | A2 binding
1 | CCRAGALDWVCARRE (Hepatitis C virus) [F37-51] | dose-dependent increase | 79.2 | high binders | +
2 | PVALGLAGAPQTPGV (Hepatitis C virus) [F101-115] | dose-dependent increase | 83.2 | high binders | +
3 | SLVEFTCCRA (Hepatitis C virus) [F31-40] | dose-dependent increase |  |  | +
4 | VRSLVEFTCCRAGAL (Hepatitis C virus) [F29-43, 15-mer of HCV-1a F protein] | dose-dependent increase | 87.6 | high binders | +
5 | ALGLAGAPQT (Hepatitis C virus) [F103-112] | unable to rescue HLA-A2 expression |  |  | 
6 | KLVALGINAV [NS3 1406, reference compound] |  |  |  | +
7 | AGAPQTPGV (Hepatitis C virus) [F107-115] | dose-dependent capacity to rescue A2 expression |  |  | +
